Target: T1, His-tagged USP7S (Ser18-containing isoform of USP7/HAUSP), purified recombinant (human, UniProt Q93009 1-1102, phosphoserine at 18 as purified from insect cells; not stated whether the phosphorylated or the dephosphorylated form stood in the pull-down of Figure 4D)
T1 construct: USP7 (HAUSP), human, the isoform that contains serine 18 (USP7S); also called pUSP7S; source: recombinant, purified from insect cells
Test: pull-down; equal amounts (0.42 pmol) of purified His-tagged USP7S and PPM1G incubated at room temperature for 30 min; USP7S pulled down with magnetic Ni-NTA agarose beads (magnetic beads as mock control); western blot with USP7S and PPM1G antibodies
Conditions: both partners purified

T1 sequence (Q93009 whole entry, canonical isoform): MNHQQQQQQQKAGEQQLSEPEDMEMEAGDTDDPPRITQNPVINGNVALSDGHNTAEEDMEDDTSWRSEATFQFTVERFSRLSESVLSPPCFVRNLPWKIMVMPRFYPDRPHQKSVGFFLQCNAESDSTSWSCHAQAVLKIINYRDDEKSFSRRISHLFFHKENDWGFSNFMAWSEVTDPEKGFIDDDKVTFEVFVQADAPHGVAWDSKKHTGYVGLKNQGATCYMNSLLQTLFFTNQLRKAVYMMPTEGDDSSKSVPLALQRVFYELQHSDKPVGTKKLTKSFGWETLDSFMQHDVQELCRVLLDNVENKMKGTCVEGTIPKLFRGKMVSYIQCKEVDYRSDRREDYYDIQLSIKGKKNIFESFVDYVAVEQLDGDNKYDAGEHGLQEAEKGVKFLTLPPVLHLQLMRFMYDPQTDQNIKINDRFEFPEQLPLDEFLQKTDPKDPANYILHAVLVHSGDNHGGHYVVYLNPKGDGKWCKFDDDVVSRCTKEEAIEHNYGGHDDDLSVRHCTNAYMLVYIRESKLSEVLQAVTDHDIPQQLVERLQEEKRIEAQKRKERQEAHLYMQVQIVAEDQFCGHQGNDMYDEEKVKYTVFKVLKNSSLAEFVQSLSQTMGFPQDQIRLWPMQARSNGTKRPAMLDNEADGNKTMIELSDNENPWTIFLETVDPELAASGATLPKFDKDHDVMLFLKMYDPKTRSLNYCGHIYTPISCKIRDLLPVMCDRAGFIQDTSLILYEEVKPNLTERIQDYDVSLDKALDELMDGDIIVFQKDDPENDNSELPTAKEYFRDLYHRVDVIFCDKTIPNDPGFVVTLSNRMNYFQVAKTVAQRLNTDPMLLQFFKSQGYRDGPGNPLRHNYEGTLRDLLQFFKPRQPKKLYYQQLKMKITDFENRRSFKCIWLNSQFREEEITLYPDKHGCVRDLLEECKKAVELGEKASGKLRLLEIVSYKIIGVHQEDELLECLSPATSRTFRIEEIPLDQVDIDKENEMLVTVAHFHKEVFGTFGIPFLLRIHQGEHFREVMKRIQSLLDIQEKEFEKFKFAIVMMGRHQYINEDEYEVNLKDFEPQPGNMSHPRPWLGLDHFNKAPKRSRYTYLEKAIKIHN

binding result: binds
B1: PPM1G, purified recombinant (enzyme, human, UniProt O15355 1-546, looked up)
chain: MGAYLSQPNTVKCSGDGVGAPRLPLPYGFSAMQGWRVSMEDAHNCIPELDSETAMFSVYDGHGGEEVALYCAKYLPDIIKDQKAYKEGKLQKALEDAFLAIDAKLTTEEVIKELAQIAGRPTEDEDEKEKVADEDDVDNEEAALLHEEATMTIEELLTRYGQNCHKGPPHSKSGGGTGEEPGSQGLNGEAGPEDSTRETPSQENGPTAKAYTGFSSNSERGTEAGQVGEPGIPTGEAGPSCSSASDKLPRVAKSKFFEDSEDESDEAEEEEEDSEECSEEEDGYSSEEAENEEDEDDTEEAEEDDEEEEEEMMVPGMEGKEEPGSDSGTTAVVALIRGKQLIVANAGDSRCVVSEAGKALDMSYDHKPEDEVELARIKNAGGKVTMDGRVNGGLNLSRAIGDHFYKRNKNLPPEEQMISALPDIKVLTLTDDHEFMVIACDGIWNVMSSQEVVDFIQSKISQRDENGELRLLSSIVEELLDQCLAPDTSGDGTGCDNMTCIIICFKPRNTAELQPESGKRKLEEVLSTEGAEENGNSDKKKKAKRD
notes: Serine/threonine protein phosphatase PPM1G (PP2Cγ), human; also called PP2Cγ; PPM1GGST; source: purified recombinant

Source: publication PMC3401373, “ATM-Dependent Downregulation of USP7/HAUSP by PPM1G Activates p53 Response to DNA Damage” (Molecular Cell, 2012)
